Measurements published in the nanobody polyreactivity screen of Harvey et al. (2022).

Test: yeast display, Sf9 membrane polyspecificity reagent, FACS + sequencing; frameworks hold sequencing errors
Method in brief: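 Nanobodies came from a synthetic yeast display library in Saccharomyces cerevisiae BJ5465, induced with galactose for 36–48 hours and stained for 1 hour at 4 °C with 10% biotinylated, detergent-solubilized Sf9 membrane reagent. Cells were enriched on streptavidin microbeads and then FACS-sorted, with low and high (top ~1%) gates set on anti-HA fluorescence for expression and streptavidin fluorescence for reagent binding. Each polyreactivity label reflects the gate a clone came from. Genes were amplified by colony PCR, sequenced by MiSeq 2 × 250 and filtered by CDR length.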
With “QVQLVESGGGLVQAGGSLRLSCAASGRIFRYYAKGWYRQAPGKERELVARIRWSGGSTYYADSVKGRFTISRDNAKNTVYLQMNSLKPEDTAVYYCNAGSWSYRYNYWGQGTQVTVSS” the “polyreactivity (PSR sort gate)” value was “high polyreactivity”.
In the case of “QVQLVESGGGLVQAGGSLRLSCAASGRIFRYYAMGWYRQAAGKERELVAAISYSGGRTYYADSVKGRFTISRDNAKNTVYVQMNSLKPEDTAVYYCASVWHSQSSYVPFDSWGQGTQVTVSS”, the “polyreactivity (PSR sort gate)” value is reported as “high polyreactivity”.
In the case of “QVQLVESGGGLVQAGGSLRLSCAASGRIFRYYAMGWYRQAPAKERELVASISRRGGSTNYADSVKGRFTISRDNAKNTVYLQMNSLKPEDTAVYYCNAENWSPRGLYNYWGQGTQVTVSS”, the “polyreactivity (PSR sort gate)” value is reported as “high polyreactivity”.
With “QVQLVESGGGLVQAGGSLRLSCAASGRIFRYYAMGWYRQAPGKERELVAAIRWTAGSTYYADSVKGRFTISRDIAKNTVYLQMNSLKPEDTAVYYCATDVWKYGRYEYWGQGTQVTVSS” the “polyreactivity (PSR sort gate)” value was “low polyreactivity”.
For “QVQLVESGGGLVQAGGSLRLSCAASGRIFRYYAMGWYRQAPGKERELVAAISRRGSSTYYADSVKGRFTISRDNAKNTVYLQMNSLKPEDTAVYYCSAKRQVYQSESTYEYWGQGTQVTVSS”, the “polyreactivity (PSR sort gate)” value was “high polyreactivity”.
In the case of “QVQLVESGGGLVQAGGSLRLSCAASGRIFRYYAMGWYRQAPGKERELVAAISVSGGSTYYADSVKGRFTISRDNAKNTVYLKMNSLKPEDTAVYYCAARIKTYSKRYYWGQATQVTVSS”, the “polyreactivity (PSR sort gate)” value is reported as “high polyreactivity”.
For “QVQLVESGGGLVQAGGSLRLSCAASGRIFRYYAMGWYRQAPGKERELVAAISWSGGRTYYADSVKGRFTISRDNAKNSVYLQMNSLIPEDTAVFYCYAGYLYPGYFVREYDYWGQGTQVTVSS”, the “polyreactivity (PSR sort gate)” value was “high polyreactivity”.
For “QVQLVESGGGLVQAGGSLRLSCAASGRIFRYYAMGWYRQAPGKERELVAAITAGGGTTYYADSVKGRFTISRDNAKNTVYLQMNSLKPEDTAVYYWAKDGRYYSHYNYWGQGTQVTVSS”, the “polyreactivity (PSR sort gate)” value was “high polyreactivity”.
With “QVQLVESGGGLVQAGGSLRLSCAASGRIFRYYAMGWYRQAPGKERELVASSTYYADSVKGRFTISRDNAKNTVYLQMNSLKPEDTAVYYCAAVKGTRGWYDYWGQGTQVTVSS” the “polyreactivity (PSR sort gate)” value was “high polyreactivity”.
With “QVQLVESGGGLVQAGGSLRLSCAASGRIFRYYAMGWYRQATGKQRELVAAISSGVGNTYYADSVKGRFTISRDNAKNTVYLQMNSLKPEDTAVYYCNAKWRKFGTVRYDYWGQGTQVTVSS” the “polyreactivity (PSR sort gate)” value was “high polyreactivity”.
For “QVQLVESGGGLVQAGGSLRLSCAASGRIFRYYDMAWYTQAPGKEREFVAAITRSGAITYYADSVKGRFTKSRDNAKNTVYLQMNSLKPEDTAVYYCAARYWAKFGYWGQGTQVTVSS”, the “polyreactivity (PSR sort gate)” value was “low polyreactivity”.
In the case of “QVQLVESGGGLVQAGGSLRLSCAASGRIFRYYTMGWYRQAPGKVRELVAAITRRGGITNYADSVTGRFTISRDNAKNTVYLQMNSLKPEDTAVYYCAAKSVSQGDDYWGQGTQVTVSS”, the “polyreactivity (PSR sort gate)” value is reported as “high polyreactivity”.
For “QVQLVESGGGLVQAGGSLRLSCAASGRIFRYYVLGWYRQAPGKERELVATINWSGSRTYYADSVKGRFTISRDNAKNTVYLQMNSLKPEDTAVYYCAARTFNTYPRYYYWGQGTQVTVSS”, the “polyreactivity (PSR sort gate)” value was “high polyreactivity”.
For “QVQLVESGGGLVQAGGSLRLSCAASGRIFRYYVMGWYRQAPGKERELVAAISRSGGSTRYADSVKGRFTISRDNAKNTVYLQMNSLKPEDTAVYYCAATSRSYNDYDYWGQGTQVTVSS”, the “polyreactivity (PSR sort gate)” value was “high polyreactivity”.
In the case of “QVQLVESGGGLVQAGGSLRLSCAASGRIFSANAMGWYRQAPGKERELVAAITRGDNTYYADSVKGRFTISRDNAKNTVYLQMNSLKPEDTAVYYCATEGYQIQYEHDYWGQGTQLTVSS”, the “polyreactivity (PSR sort gate)” value is reported as “low polyreactivity”.
In the case of “QVQLVESGGGLVQAGGSLRLSCAASGRIFSDYAMGWYIQAPGKERELVAAISWGGGRTYYADSVKGRFTISRDNAKNTVYLQMNSLKPEDTAVYYCNRGTVNSWARGYWGQGTQVTVSS”, the “polyreactivity (PSR sort gate)” value is reported as “high polyreactivity”.
In the case of “QVQLVESGGGLVQAGGSLRLSCAASGRIFSDYAMGWYRQAPGKERELVAAISRSGTRTYYADSVKGRFTISRDNAKNTVYLQMNSLKPEDTAVYSCAAKTPYGRAGQEEDYCGQGTQVTVSS”, the “polyreactivity (PSR sort gate)” value is reported as “high polyreactivity”.
For “QVQLVESGGGLVQAGGSLRLSCAASGRIFSFYAMGWYRQAPGKERELVATISKRAGSTYYADSVKGRFTISRDNAKNTVYLQMNSLKPEDTEVYYCYAYKRGYLYRYNYWGQGTQVTVSS”, the “polyreactivity (PSR sort gate)” value was “high polyreactivity”.
In the case of “QVQLVESGGGLVQAGGSLRLSCAASGRIFSFYTMGWYRQAPGKERELVAAITWRGGSTYYADSVKGRFTISRDNAKNTVYLQMNSLKPEDTAVYYCAAEVYGAVYDYWGQGTQVTVSS”, the “polyreactivity (PSR sort gate)” value is reported as “low polyreactivity”.
For “QVQLVESGGGLVQAGGSLRLSCAASGRIFSGNAMGWYRQAPGKERELVARISRSGSNTYYADSVKGRFTISRDNAKNTVYLQMKSLKPEDTAVYYCAAKSTYWPYDRTYNSWGQVTQVTVSS”, the “polyreactivity (PSR sort gate)” value was “high polyreactivity”.
In the case of “QVQLVESGGGLVQAGGSLRLSCAASGRIFSGYAMGWDRQAPGKERELVAAITSRSGSTYYADSVKGRFTISRDNAKNTVYLQMNSLKPEDTAVYYCAKRLYKPGNVFYSVDQSDYWGQGTQVTVSS”, the “polyreactivity (PSR sort gate)” value is reported as “low polyreactivity”.
For “QVQLVESGGGLVQAGGSLRLSCAASGRIFSGYAMGWYRQAPGKEREFVAAITSSGRTKYADSVKGRFTISRDNAKNTVYLQMNSLKPEDTAVYYCAARPSQWNYDYRRVYYWGQGTQVTVSS”, the “polyreactivity (PSR sort gate)” value was “high polyreactivity”.
With “QVQLVESGGGLVQAGGSLRLSCAASGRIFSGYAMGWYRQAPGKERELVAAITSGASTNYADSVKGRFTISRDNAKNTVYLQMNSLKPEDTAVYYCAATYHTWRGQYLWYDYWGQGTQVTVSW” the “polyreactivity (PSR sort gate)” value was “low polyreactivity”.
With “QVQLVESGGGLVQAGGSLRLSCAASGRIFSGYAMGWYRQAPGKERELVAAITSVGSTNYADSVKGRFTISRDNAKNNVYLQMNSLKPEDTAVYYCAARSQSYYRYRSYGYWGQGTQVTVSS” the “polyreactivity (PSR sort gate)” value was “high polyreactivity”.
In the case of “QVQLVESGGGLVQAGGSLRLSCAASGRIFSGYAMGWYRQAPGKERELVAAITSVGSTNYADSVKGRFTISRDNAKYTVYLQMNSLKPEDTAVYYCAKDTGQGYYWGQGTQVTVSS”, the “polyreactivity (PSR sort gate)” value is reported as “high polyreactivity”.
For “QVQLVESGGGLVQAGGSLRLSCAASGRIFSGYAMGWYRQAPGKEWELVAAITWSGGSTYADSVKGRFTISRDNAKHTVYLQMNTLKPEDTAVYYCNTSARYNGSYKYDYWGQGTQVTVSS”, the “polyreactivity (PSR sort gate)” value was “low polyreactivity”.
With “QVQLVESGGGLVQAGGSLRLSCAASGRIFSHYAMAWYRQAPGKERELVAAITSDRSTNYADSVKGRFTISRDNANNTVYLQMNSLKPDDTAVYYCAKYVHIPYYYYLFGSYDYWGQGTQVTVSS” the “polyreactivity (PSR sort gate)” value was “low polyreactivity”.
With “QVQLVESGGGLVQAGGSLRLSCAASGRIFSHYAMGWYRQAPGKERELVAAINRSGGSTYYADSVKGRFTISRDNAKNTVYLQMNSLKPEDTAVYYCAATSLRRYGYNYWGQGTQVTVSS” the “polyreactivity (PSR sort gate)” value was “high polyreactivity”.
In the case of “QVQLVESGGGLVQAGGSLRLSCAASGRIFSHYAMGWYRQAPGKERELVAAITWSGGRTYYADSVKGRFTISRDNAKNTVYLQMNSLKPEDTAVYYCNAYPSSSLFDYWGQGTQVTVSS”, the “polyreactivity (PSR sort gate)” value is reported as “low polyreactivity”.
In the case of “QVQLVESGGGLVQAGGSLRLSCAASGRIFSKYAMGWNRQAPGKERELVAAITSSTKYADSVKGRFTISRDNAKNTVYLQMNSLKPEDTAVYYCNAEFGWHTYYGADFKMDYWGQGTQVTVSS”, the “polyreactivity (PSR sort gate)” value is reported as “high polyreactivity”.
For “QVQLVESGGGLVQAGGSLRLSCAASGRIFSKYAMGWYRQAPGKEMELDAAITRSGGSTYYADSVKGRFTISRDNAKNTVYLQMNSLKPEDTAVYYCNAGTYSTSVPYRYNYWGQGTQVTVSS”, the “polyreactivity (PSR sort gate)” value was “high polyreactivity”.
With “QVQLVESGGGLVQAGGSLRLSCAASGRIFSLNAMGWYRQAPGKERELVAGIRKRGGSTYYADSVKGRFTISRDNAKNTVYLQMNSLKPEDTAVYYCAARFYYGPGGYTMYYWGQGTQVTVSS” the “polyreactivity (PSR sort gate)” value was “high polyreactivity”.
In the case of “QVQLVESGGGLVQAGGSLRLSCAASGRIFSNNVMGWNRQGPGKERELVATISTDGRTNYADSVKGRFTISRDNAKNTVYLQMNSQKPEDTAVSYCAATGVTLLLSSKSDYWGQGTQVTVSS”, the “polyreactivity (PSR sort gate)” value is reported as “low polyreactivity”.
For “QVQLVESGGGLVQAGGSLRLSCAASGRIFSNYAMGWYRQAPGKERELVAAISYSGDSTYYADSVKGRFTISRDNAKNTVYLQMNSLKPEDTAVYYCAAVRSYRRYPQSSDLYYYWGQGTQVTVSS”, the “polyreactivity (PSR sort gate)” value was “high polyreactivity”.
In the case of “QVQLVESGGGLVQAGGSLRLSCAASGRIFSPNAMGWYRQAPGKERELVAAISWRGRTYYADSVKGRFTISRDNAKNTVYLQMNSLKPEDTAVYYCNAPYKYVRGDYWGQGTQVTVSS”, the “polyreactivity (PSR sort gate)” value is reported as “high polyreactivity”.
With “QVQLVESGGGLVQAGGSLRLSCAASGRIFSPNAMGWYRQAPGKERELVAAITRGGSTNYADSVKGRFTISRDNAKNTVYLQMNSLKPEDTAVYYCAAQLAKTISGRGYNSWGQGTQVTVSS” the “polyreactivity (PSR sort gate)” value was “low polyreactivity”.
With “QVQLVESGGGLVQAGGSLRLSCAASGRIFSPYAMGWYRQAPGKERELVAAISSSGTYYADSVKGRFTISRDNAKNTVYLQMNSLKPEDTAVYYCNARRYWGRYDYWGQGTQVTVSS” the “polyreactivity (PSR sort gate)” value was “high polyreactivity”.
For “QVQLVESGGGLVQAGGSLRLSCAASGRIFSPYAMGWYRQAPGKERELVAAITSSGGSSYYADSVKGRFTISRDYAKNTVYLQMNSLKPEDTAVYYCNARRGRYTPSVNYWGQGTQVTVSS”, the “polyreactivity (PSR sort gate)” value was “high polyreactivity”.
With “QVQLVESGGGLVQAGGSLRLSCAASGRIFSPYAMGWYRQAPGKERELVATITSGGSTNYADSVKGRFTISRDNAKNTVYLQKNSLKPEDTAVYYCNAVYYSNPYYYSRVWQYYYWGQGTQVTVSS” the “polyreactivity (PSR sort gate)” value was “low polyreactivity”.
In the case of “QVQLVESGGGLVQAGGSLRLSCAASGRIFSRNAMGWSRQAPGKERELVAAISRSGGTTYYADSVKGRFTISRDNAKNTVYLQMISLKPEDTAVYYCAAYFWFYVQYEYWGQGTQVTVSS”, the “polyreactivity (PSR sort gate)” value is reported as “high polyreactivity”.
In the case of “QVQLVESGGGLVQAGGSLRLSCAASGRIFSRNAMGWYRQAPGKERELVAAISGSGGSTYYADSVKGRFTISRDNAKNTVYLQMNSLKPEDTAVYYCNKFGYHREYDYWGQGTQVTVSS”, the “polyreactivity (PSR sort gate)” value is reported as “low polyreactivity”.
For “QVQLVESGGGLVQAGGSLRLSCAASGRIFSRNAMGWYRQAPGKERELVAAISRTGGSTYYADSVKGRFTISRDNAKNTVYLQMNSLKPEDTAVYYCADAYYRKSSYGQIVEYDYWGQGTQVTVSS”, the “polyreactivity (PSR sort gate)” value was “high polyreactivity”.
With “QVQLVESGGGLVQAGGSLRLSCAASGRIFSRNAMGWYRQAPGKERELVAGISARGGRTYYADSVKGRFTNSRDNAKNTVYLQMNSLKPEDTAVYYCAASFSAIRGGVRVTIDYYWGQGTQVTVSS” the “polyreactivity (PSR sort gate)” value was “high polyreactivity”.
